Experiment: soluble on expression in E. coli; label from the status in PepcDB or PDB records

Sequence	soluble on expression in E. coli
MGSDKIHHHHHHMLAFAARTVVKPLGLLKPSSLMKVSGRFKAHQDALPRLPVPPLQQSLDYYLKALQPIVSEEEWAHTKQLVDEFQTSGGVGERLQKGLERRAKKMENWLSEWWLKTAYLQFRQPVVIYSSPGVILPKQDFVDLQGQLRFAAKLIEGVLDFKSMIDNETLPVEFLGGQPLCMNQYYQILSSCRVPGPKQDSVVNFLKSKRPPTHITVVHNYQFFELDVYHSDGTPLTSDQIFVQLEKIWNSSLQSNKEPVGILTSNHRNTWAKAYNNLIKDKVNRESVNSIQKSIFTVCLDKQVPRVSDDVYRNHVAGQMLHGGGSKFNSGNRWFDKTLQFIVAEDGSCGMVYEHAAAEGPPIVALVDHVMEYTKKPELVRSPMVPLPMPKKLRFNITPEIKNDIEKAKQNLSIMIQDLDIMMLTFHHFGKDFPKSEKLSPDAFIQVALQLAYYRIYGQACATYESASLRMFHLGRTDTIRSASIDSLAFVKGMGDSTVPEQQKVELLRKAVQAHRAYTDRAIRGEAFDRHLLGLKLQAIEDLVSMPDIFMDTSYAIAMHFNLSTSQVPAKTDCVMFFGPVVPDGYGICYNPMEAHINFSVSAYNSCAETNAARMAHYLEKALLDMRTLLQNHPRAKL	not soluble
MGSDKIHHHHHHMGFKEDFMGNAPGACPFLHLVERSTSDVLEQAEALPFWSQDYTQLSKGAFSGSVTSVSCDGLQIFTETMNQAVDQIASAPVDSYVMGLPTLVDGESTWGLLPITTNSLITLEKNAELYFKTSNISEITAAVIPAQRLETYAAEVEWIDLSKVMEGLKPVEMLHPDIAQQLLSALQGGIQYKADIADNIHAHQMWRNFEDDLLSTCLHTLLHVRGNIHPHFDQRLPRYLVNRVRDYTLSNSALPLTIGELCKSLRVSRRTLNHAFIRVLGITPVAYIRNLRLHRVRFEMQQSPHEVISIAHLATKWGFWHLSLFSRYYRELFGECPIDTLQRARLESKRP	not soluble
MLNYTGLENKNVLVVGLAKSGYEAAKLLSKLGANVTVNDGKDLSQDAHAKDLESMGISVVSGSHPLTLLDNNPIIVKNPGIPYTVSIIDEAVKRGLKILTEVELSYLISEAPIIAVTGTNGKTTVTSLIGDMFKKSRLTGRLSGNIGYVASKVAQEVKPTDYLVTELSSFQLLGIEKYKPHIAIITNIYSAHLDYHENLENYQNAKKQIYKNQTEEDYLICNYHQRQVIESEELKAKTLYFSTQQEVDGIYIKDGFIVYKGVRIINTEDLVLPGEHNLENILAAVLACILAGVPIKAIIDSLTTFSGIEHRLQYVGTNRTNKYYNDSKATNTLATQFALNSFNQPIIWLCGGLDRGNEFDELIPYMENVRAMVVFGQTKAKFAKLGNSQGKSVIEANNVEDAVDKVQDIIEPNDVVLLSPACASWDQYSTFEERGEKFIERFRAHLPSY	not soluble
SSGGGTETPVACDAAQGGKKRDSLGTPGAAHLIIKDLGEIHSRLLDHRPVTQGEIRYFVKEFEEKRGLRELRVLKNLENTIQETNECLLPKCRETMECGLGETLQRLQAANDSICRLQQREQERKKVINDYLTASEKRRLVQWEEFVSGQPQRRAEVDEEHRRAVERLREQYAAMEKDLAKFSTF	soluble
MENILEVNQIKKYYKIKTGLLQKTQYVKAVDDVSFSIKKGQTFGLVGESGCGKSTLGKVIIRLEDATSGSIIVNGEDITRLQGKKLRKSRQQYQMIFQDPYASLNPMQMVGDIISEPILNYKKLPKEEIKKEVLYLLKCVGLSEDAYYKYAHEFSGGQRQRVGIARALALRPSLIVADEPVSALDVSVQSQVLNLLKDLQEQFNLSYLFIAHDLSVVKHISDVIGVMYLGHIVEIASDKEIYENPKHPYTKALISSIPQIDKHNNNRIILKGELPSPSNPPQGCPFHTRCPIAQDMCKKSMPELKDIGNEHQVACFYVDKVGDLND	not soluble
MSDNLVLPTYDDVASASERIKKFANKTPVLTSSTVNKEFVAEVFFKCENFQKMGAFKFRGALNALSQLNEAQRKAGVLTFSSGNHAQAIALSAKILGIPAKIIMPLDAPEAKVAATKGYGGQVIMYDRYKDDREKMAKEISEREGLTIIPPYDHPHVLAGQGTAAKELFEEVGPLDALFVCLGGGGLLSGSALAARHFAPNCEVYGVEPEAGNDGQQSFRKGSIVHIDTPKTIADGAQTQHLGNYTFSIIKEKVDDILTVSDEELIDCLKFYAARMKIVVEPTGCLSFAAARAMKEKLKNKRIGIIISGGNVDIERYAHFLSQ	soluble
MGSDKIHHHHHHMSTEKIFIIGLPRTATTSVCLAMLEQGYKTAHNAYTQDSFSQAQVLADTPIFCDYQTLDKDFPNSRFIHLTRAPELWLPSIKQLLQRMLVNLQRTDGGFNPHIKRCYSETFSPLTEENINSDEFLLDCYTRHQQGITEHFQDRPQDLLTIDVGDEGSYLAMLSFLNIEKEKAREGGFKQINIGGKVRAWQHLNNPLKVESTNKGRIDKVLY	not soluble

Source: the DeepSol protein solubility set
